Data from the supplement of paper PMC7877785.
± gives the uncertainty stated by the source.

Assay: self-splicing fitness, log relative to wild type (ln ratio); higher = more splicing; Tetrahymena group I intron in knt gene, E. coli kanamycin selection, DiMSum; sequences stand for … in CUCUCU…GGAGGGAAAAGUUAUCAGGCAUGCACCUGGUAGCUAGUCUUUAAACCAAUAGAUUGCAUCGGUUUAAAAGGCAAGACCGUCAAAUUGCGGGAAAGGGGUCAACAGCCGUUCAGUACCAAGUCUCAGGGGAAACUUUGAGAUGGCCUUGCAAAGGGUAUGGUAAUAAGCUGACGGACAUGGUCCUAACCACGCAGCCAAGUCCUAAGUCAACAGAUCUUCUGUUGAUAUGGAUGCAGUUCACAGACUAAAUGUCGGUCGGGGAAGAUGUAUUCUUCUCAUAAGAUAUAGUCGGACCUCUCCUUAAUGGGAGCUAGCGGAUGAAGUGAUGCAACACUGGAGCCGCUGGGAACUAAUUUGUAUGCGAAAGUAUAUUGAUUAGUUUUGGAGUACUCGUGGUCG
Method in brief: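 Colonies from six replicate transformations of E. coli BL21(DE3) were pooled and amplicon-sequenced on an Illumina HiSeq 2500. The library placed an intron with all eight P1ex-region nucleotides randomised inside the knt kanamycin-resistance gene on pET-22b(+), and cells grew overnight at 37°C or 30°C on LB agar with or without 25 μg/mL kanamycin (plus 100 μg/mL carbenicillin, 50 μM IPTG, 0.2% rhamnose). Fitness is the DiMSum error-weighted combination of wild-type-normalised replicate fold changes, kanamycin versus none.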

| Sequence | self-splicing fitness (ln) (30 °C) | self-splicing fitness (ln) (37 °C) |
| --- | --- | --- |
| UCGAAGCAAUAUUACGCACG | -1.8 ± 0.14 | -0.85 ± 0.14 |
| UCGAAGCAAUAUUACGCACU | -2.62 ± 0.18 | -0.962 ± 0.14 |
| UCGAAGCAAUAUUACGCAGA | -2.28 ± 0.2 | -2.85 ± 0.27 |
| UCGAAGCAAUAUUACGCGAU | -3.31 ± 0.32 |  |
| UCGAAGCAAUAUUACGCGCC |  | -1.49 ± 0.28 |
| UCGAAGCAAUAUUACGCGUC |  | -0.484 ± 0.32 |
| UCGAAGCAAUAUUACGCUCA | -2.11 ± 0.19 | -0.861 ± 0.23 |
| UCGAAGCAAUAUUACGGACU | -1.07 ± 0.11 | 0.0804 ± 0.13 |
| UCGAAGCAAUAUUACGGAGA | -2.69 ± 0.24 | -2.44 ± 0.32 |
| UCGAAGCAAUAUUACGGAUG | -2.8 ± 0.13 | -1.68 ± 0.11 |
| UCGAAGCAAUAUUACGGGCA | -0.603 ± 0.094 | -0.507 ± 0.1 |
| UCGAAGCAAUAUUACGGUGA | -0.813 ± 0.077 | 0.158 ± 0.091 |
| UCGAAGCAAUAUUACGUAAA | -1.72 ± 0.11 | -0.804 ± 0.14 |
| UCGAAGCAAUAUUACGUGCA | -0.485 ± 0.096 | -0.214 ± 0.095 |
| UCGAAGCAAUAUUACGUGGA | -2.29 ± 0.14 | -2.46 ± 0.16 |
| UCGAAGCAAUAUUACGUGUA | -2.47 ± 0.17 | -1.71 ± 0.18 |
| UCGAAGCAAUAUUACGUUUC | -1.9 ± 0.14 | -3.66 ± 0.36 |
| UCGAAGCAAUAUUACGUUUG | -2.67 ± 0.13 | -1.88 ± 0.15 |
| UCGCAGCAAUAUUACGAAUU | -4.07 ± 0.34 | -2.75 ± 0.17 |
| UCGCAGCAAUAUUACGACAU | -3.604 ± 0.025 | -2.56 ± 0.037 |
| UCGCAGCAAUAUUACGAGUG | -1.48 ± 0.088 | -0.719 ± 0.1 |
| UCGCAGCAAUAUUACGAUAC | -3.52 ± 0.46 | -2.76 ± 0.34 |
| UCGCAGCAAUAUUACGAUGA | -0.691 ± 0.072 | 0.0326 ± 0.081 |
| UCGCAGCAAUAUUACGAUGC | -3.73 ± 0.28 | -1.64 ± 0.2 |
| UCGCAGCAAUAUUACGAUUG | -3.66 ± 0.18 | -1.9 ± 0.16 |
| UCGCAGCAAUAUUACGCACA | -0.0778 ± 0.1 | -0.131 ± 0.13 |

| Sequence | self-splicing fitness (ln) (30 °C) | self-splicing fitness (ln) (37 °C) |
| --- | --- | --- |
| UCGCAGCAAUAUUACGCACC | -1.68 ± 0.27 | -1.6 ± 0.38 |
| UCGCAGCAAUAUUACGCAGA | -3.72 ± 0.29 | -0.987 ± 0.12 |
| UCGCAGCAAUAUUACGCCCG | -1.51 ± 0.35 |  |
| UCGCAGCAAUAUUACGCGGU | -4.16 ± 0.24 | -2.41 ± 0.28 |
| UCGCAGCAAUAUUACGCUGA | -2.33 ± 0.21 | -1.15 ± 0.14 |
| UCGCAGCAAUAUUACGCUUA | -1.67 ± 0.12 | -0.94 ± 0.09 |
| UCGCAGCAAUAUUACGGACU | -2.14 ± 0.16 | -0.513 ± 0.16 |
| UCGCAGCAAUAUUACGGAUA | -2.58 ± 0.25 | -2.44 ± 0.26 |
| UCGCAGCAAUAUUACGGCGG | -3.41 ± 0.17 | -2.28 ± 0.21 |
| UCGCAGCAAUAUUACGGUUC | -3.65 ± 0.43 | -1.66 ± 0.3 |
| UCGCAGCAAUAUUACGUAUG | -1.83 ± 0.1 | -2.02 ± 0.15 |
| UCGCAGCAAUAUUACGUCAC | -3.57 ± 0.15 | -2.85 ± 0.16 |
| UCGCAGCAAUAUUACGUCCU | -1 ± 0.097 | -0.105 ± 0.092 |
| UCGCAGCAAUAUUACGUCUU | -1 ± 0.11 | -0.165 ± 0.12 |
| UCGCAGCAAUAUUACGUGCG | -4.06 ± 0.22 | -3.23 ± 0.3 |
| UCGCAGCAAUAUUACGUUAG | -2.74 ± 0.15 | -1.63 ± 0.17 |
| UCGCAGCAAUAUUACGUUCA | -0.883 ± 0.07 | 0.0196 ± 0.064 |
| UCGGAGCAAUAUUACGAUUA |  | 0.203 ± 0.28 |
| UCGGAGCAAUAUUACGCUAC | -2.11 ± 0.34 |  |
| UCGGAGCAAUAUUACGCUCU | -2.27 ± 0.36 | -1.68 ± 0.23 |
| UCGGAGCAAUAUUACGCUGC | -3.04 ± 0.38 |  |
| UCGGAGCAAUAUUACGGAAU |  | -2.38 ± 0.42 |
| UCGGAGCAAUAUUACGGCUA |  | -1.32 ± 0.39 |
| UCGGAGCAAUAUUACGGCUG | -2.33 ± 0.18 | -1.5 ± 0.19 |
| UCGGAGCAAUAUUACGGGAC |  | -1.99 ± 0.29 |
